From US10689452 (UNIVERSIT T STUTTGART, dated 2020)
Substitutions are numbered along the chain they refer to.

T1: mouse TNFR1-Fc fusion protein (mouse, UniProt P25118 30-212)
T1 construct: range 30-212; also called moR1; not shown: Fc part from vector pSecTagL1-Fc
T1 sequence (looked up): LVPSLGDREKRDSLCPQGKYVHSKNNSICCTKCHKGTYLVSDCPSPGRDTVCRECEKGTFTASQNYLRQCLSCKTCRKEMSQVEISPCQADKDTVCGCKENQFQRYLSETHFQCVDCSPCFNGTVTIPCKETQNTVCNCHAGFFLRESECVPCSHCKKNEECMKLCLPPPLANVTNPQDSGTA

T2: human TNFR2-Fc fusion protein (human, UniProt P20333 23-257)
T2 construct: whole entry named; also called huTNFR2
T2 sequence (looked up): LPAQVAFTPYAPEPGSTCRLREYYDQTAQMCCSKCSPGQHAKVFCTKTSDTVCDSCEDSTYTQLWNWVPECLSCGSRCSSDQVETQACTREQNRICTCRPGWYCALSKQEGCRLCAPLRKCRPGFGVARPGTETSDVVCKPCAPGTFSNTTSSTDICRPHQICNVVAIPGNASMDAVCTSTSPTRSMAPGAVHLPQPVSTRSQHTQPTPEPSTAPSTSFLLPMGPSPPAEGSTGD

T3: mouse TNFR2-Fc fusion protein (mouse, UniProt P25119 23-258)
T3 construct: range 23-258; not shown: Fc part from vector pSecTagL1-Fc
T3 sequence (looked up): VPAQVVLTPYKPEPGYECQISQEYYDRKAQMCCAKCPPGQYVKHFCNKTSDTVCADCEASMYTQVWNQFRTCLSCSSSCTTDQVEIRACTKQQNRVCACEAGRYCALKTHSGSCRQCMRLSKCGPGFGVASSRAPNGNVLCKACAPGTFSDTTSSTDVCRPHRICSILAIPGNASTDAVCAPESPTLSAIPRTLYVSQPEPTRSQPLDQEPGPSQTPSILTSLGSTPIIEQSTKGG

T4: human TNFR1-Fc fusion protein (human, UniProt P19438 29-211)
T4 construct: range 29-211; Made in stably transfected HEK293 cells; coated on ELISA plates or immobilised on QCM chips; also called huTNFR1-Fc; human TNFR-Fc; not shown: Fc part from vector pSecTagL1-Fc
T4 sequence (looked up): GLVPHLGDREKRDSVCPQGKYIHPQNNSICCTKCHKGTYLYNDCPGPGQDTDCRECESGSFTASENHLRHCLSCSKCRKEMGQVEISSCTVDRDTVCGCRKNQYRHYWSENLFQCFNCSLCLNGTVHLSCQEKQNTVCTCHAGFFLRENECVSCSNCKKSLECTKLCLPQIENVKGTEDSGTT

T5: human TNFR1 on cells (HT1080, HeLa, Kym-1) (human, UniProt P19438 30-455)
T5 sequence (looked up): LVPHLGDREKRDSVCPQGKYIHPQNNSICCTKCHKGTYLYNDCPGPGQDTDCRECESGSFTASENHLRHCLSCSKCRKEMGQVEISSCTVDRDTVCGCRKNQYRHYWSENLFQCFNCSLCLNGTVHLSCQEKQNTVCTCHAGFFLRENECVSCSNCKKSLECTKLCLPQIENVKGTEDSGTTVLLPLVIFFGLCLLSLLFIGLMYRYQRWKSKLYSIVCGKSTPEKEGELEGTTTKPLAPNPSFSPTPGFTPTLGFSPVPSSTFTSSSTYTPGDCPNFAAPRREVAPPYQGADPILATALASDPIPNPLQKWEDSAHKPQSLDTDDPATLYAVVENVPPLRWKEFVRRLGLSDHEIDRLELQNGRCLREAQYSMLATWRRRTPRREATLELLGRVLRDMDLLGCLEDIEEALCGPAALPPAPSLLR

B1: FabATROSAB (Fab, V domains shown)
VH: QVQLVQSGAEVKKPGSSVKVSCKASGYTFTDFYINWVRQAPGQGLEWIGEIYPYSGHAYYNEKFKARVTITADKSTSTAYMELSSLRSEDTAVYYCARWDFLDYWGQGTTVTVSS
VL: DIVMTQSPLSLPVTPGEPASISCRSSQSLLHSNGNTYLHWYLQKPGQSPQLLIYTVSNRFSGVPDRFSGSGSGTDFTLKISRVEAEDVGVYYCSQSTHVPYTFGGGTKVEIKR
notes: Fab of ATROSAB; also called Fab fragment of ATROSAB; ATROSAB Fab
B2: Fab13.7 (Fab, V domains shown)
VH: B1 VH with Q1H, Y52V, Y54S, S55Q, H57E, Y59K, E62D
VL: DVQMTQSPSSLSASVGDRVTITCRSSQSLLHSNGNTYLHWYQQKPGKAPKLLIYTVSNRFSGVPSRFSGSGSGTDFTLTISSLQPEDFATYYCSQSTHVPYTFGGGTKVEIKR
notes: also called Fab-FRK13.7; Fab3.7
B3: IgG13.7 (antibody, V domains shown)
VH: B1 VH with Q1H, Y52V, Y54S, S55Q, H57E, Y59K, E62D
VL: DVQMTQSPSSLSASVGDRVTITCRSSQSLLHSNGNTYLHWYQQKPGKAPKLLIYTVSNRFSGVPSRFSGSGSGTDFTLTISSLQPEDFATYYCSQSTHVPYTFGGGTKVEIK
notes: Made transiently in HEK293T cells; also called IgG-FRK13.7

What was measured:
[1] = molecular target: T1, mouse TNFR1-Fc fusion protein; assay: ELISA on coated receptor-Fc fusion proteins, one antibody concentration (not given on the sheet)
Protocol: (§1) FIG. 12. Species selectivity of scFv13.7 derivatives. […] Presented are mean and SD of two individual experiments.
(§2) Microtiter plates were coated with 100 µl of the indicated protein (1 µg/ml in PBS, see Table 3.3) and incubated at 4° C. over night. The residual binding sites were blocked with 2% MPBS (skim milk in PBS, 200 µl per well) at room temperature for 2 hours and subsequently washed twice with PBS. 100 µl of the samples diluted in 2% MPBS were incubated at room temperature for 1 hour prior to the last incubation step with 100 µl of the HRP conjugated detection antibodies in 2% MPBS. In the case of competition experiments, both analyzed protein samples were prepared individually (either titrated or diluted to a single concentration) and mixed before they were applied to the plate. Bound protein was detected with 100 µl TMB substrate solution, the HRP-reaction was stopped by the addition of 50 µl 1 M H2SO4 and the absorption at the wavelength of 450 nm was measured using the Infinite microtiter plate reader (TECAN, Maennedorf, Switzerland). Between each incubation step and in advance of the detection, the plates were washed three times with PBST and twice with PBS.

[2] = molecular target: T2, human TNFR2-Fc fusion protein; assay: as above
Protocol: as §1, §2

[3] = molecular target: T3, mouse TNFR2-Fc fusion protein; assay: as above
Protocol: as §1, §2

[4] = molecular target: T4, human TNFR1-Fc fusion protein; assay: ELISA on coated huTNFR1-Fc, antibody titrated, signal as Binding [%]
Protocol: FIG. 13. […] Increasing concentrations were tested for their binding to huTNFR1-Fc in ELISA (n=3, mean±SD).
as §2

[5] = molecular target: T4, human TNFR1-Fc fusion protein; assay: ELISA, human TNFR1-Fc
[6] = molecular target: T4, human TNFR1-Fc fusion protein; assay: QCM, human TNFR1-Fc, moderate receptor density (86 Hz), koff1
Protocol: (§3) Real-time binding dynamics in protein-protein interactions were determined by quartz crystal microbalance measurements (A-100 C-Fast or Cell-200 C-Fast, Attana, Stockholm, Sweden). One of the binding partners (ligand, e.g. TNFR1-Fc) was chemically immobilized on a carboxyl sensor chip according to the manufacturer's protocol at different densities (nearly 200 Hz in the case of saturating conditions to confirm previously published results and 50-100 Hz, in particular at about 50 Hz, to establish conditions of lower receptor density, better resembling the situation on the cellular surface). Binding experiments were performed with samples (analyte) diluted in PBST (PBS, 0.1% Tween 20) at pH 7.4 with a flow rate of 25 µl/min at 37° C. The chip was regenerated with 25 µl 5 mM NaOH or 20 mM glycine, pH 2.0. Every third measurement, an injection of running buffer was measured which was subtracted from the binding curve. Data were collected using the software provided by Attana for the particular device and analyzed by Attaché Office Evaluation software (Attana, Stockholm, Sweden) and TraceDrawe (ridgview instruments, Vange, Sweden).

[7] = molecular target: T4, human TNFR1-Fc fusion protein; assay: QCM, human TNFR1-Fc, moderate receptor density (86 Hz), KD1
Protocol: as §3

[8] = molecular target: T4, human TNFR1-Fc fusion protein; assay: QCM, human TNFR1-Fc, moderate receptor density (86 Hz), kon1
Protocol: as §3

[9] = molecular target: T5, human TNFR1 on cells (HT1080, HeLa, …); assay: cell-based or functional assay
[10] = molecular target: T5, human TNFR1 on cells (HT1080, HeLa, …); assay: cell-based or functional assay; remark: listed apart in the source
[11] = molecular target: T4, human TNFR1-Fc fusion protein; assay: ELISA on coated human TNFR1-Fc, reference curve next to Fab13.7PEG
Protocol: as §2

[12] = molecular target: T4, human TNFR1-Fc fusion protein; assay: QCM, moderate receptor density (86 Hz)
Protocol: as §3

[13] = molecular target: T4, human TNFR1-Fc fusion protein; assay: ELISA on coated human TNFR1-Fc, reference curve next to Fv13.7-Fckih0DS
Protocol: as §2

[14] = molecular target: T4, human TNFR1-Fc fusion protein; assay: QCM, human TNFR1-Fc, high receptor density (184 Hz), OneToOne analysis, koff2
Protocol: as §3, with “curve.” for “curve. Data were collected using the software provided by Attana for the particular device and analyzed by Attaché Office Evaluation software (Attana, Stockholm, Sweden) and TraceDrawe (ridgview instruments, Vange, Sweden).”

[15] = molecular target: T4, human TNFR1-Fc fusion protein; assay: QCM, human TNFR1-Fc, high receptor density (184 Hz), OneToOne analysis, kon2
Protocol: as §3, with “curve.” for “curve. Data were collected using the software provided by Attana for the particular device and analyzed by Attaché Office Evaluation software (Attana, Stockholm, Sweden) and TraceDrawe (ridgview instruments, Vange, Sweden).”

[16] = molecular target: T4, human TNFR1-Fc fusion protein; assay: QCM
[17] = molecular target: T4, human TNFR1-Fc fusion protein; assay: QCM, human TNFR1-Fc, high receptor density (184 Hz), OneToOne analysis, KD2
Protocol: as §3, with “curve.” for “curve. Data were collected using the software provided by Attana for the particular device and analyzed by Attaché Office Evaluation software (Attana, Stockholm, Sweden) and TraceDrawe (ridgview instruments, Vange, Sweden).”

Binder | koff [6] [s⁻¹] | Kd [7] [µM] | kon [8] [M⁻¹ s⁻¹] | IC50, Cytotox (nM); inhibition of Kym-1 cell death by 0.01 nM TNF [9] [nM] | IC50, IL-6 (nM); inhibition of the response of HeLa cells to 0.1 nM TNF [9] [nM] | IC50, IL-8 (nM); inhibition of the response of HT1080 cells to 0.1 nM TNF [9] [nM] | IL-6 release (pg/ml), HeLa cells [9] [pg/mL] | IL-8 release (pg/ml), HT1080 cells [9] [pg/mL] | EC50 [5] [µM] | also measured
B1 | 0.015 | 0.03 | 501000 | 37 | 145 | 151 | 179 | 128 |  | binding result [1]: no binding; binding result [2]: no binding; binding result [3]: no binding; EC50 (read off the curve) [4]: ~0.01 µM; fold weaker binding (higher EC50) compared with Fab13.7 [5]: 8.7 fold
B2 | 0.000732 | 0.0016 | 470000 | 4.7 | 31 | 19 | 101 | 138 | 0.0014 | IC50 (read off the curve), inhibition of the interleukin release induced by 0.1 nM TNF (axis: IL-6 release [%]) [10]: ~0.02 µM; EC50 (read off the curve) [11]: ~0.002 µM; fold stronger affinity than FabATR [12]: 19 fold; EC50 (read off the curve) [13]: ~0.0006 µM
B3 |  |  |  |  |  |  | 1450 | 4230 | 0.00076 | koff [14]: 5.92e-05 s⁻¹; kon [15]: 535000 M⁻¹ s⁻¹; fold improvement of KD compared with ATROSAB (bivalent binding) [16]: 3.5 fold; Kd [17]: 0.00011 µM
